B1: Strep-tagged GapA lacking SR1P (enzyme, B. subtilis, UniProt P09124 1-335, looked up)
chain: MAVKVGINGFGRIGRNVFRAALNNPEVEVVAVNDLTDANMLAHLLQYDSVHGKLDAEVSVDGNNLVVNGKTIEVSAERDPAKLSWGKQGVEIVVESTGFFTKRADAAKHLEAGAKKVIISAPANEEDITIVMGVNEDKYDAANHDVISNASCTTNCLAPFAKVLNDKFGIKRGMMTTVHSYTNDQQILDLPHKDYRRARAAAENIIPTSTGAAKAVSLVLPELKGKLNGGAMRVPTPNVSLVDLVAELNQEVTAEEVNAALKEAAEGDLKGILGYSEEPLVSGDYNGNKNSSTIDALSTMVMEGSMVKVISWYDNESGYSNRVVDLAAYIAKKGL
B3: GapA_(Strep)/SR1P (Strep-tagged GapA carrying SR1P) (complex)
chain 1: MAVKVGINGFGRIGRNVFRAALNNPEVEVVAVNDLTDANMLAHLLQYDSVHGKLDAEVSVDGNNLVVNGKTIEVSAERDPAKLSWGKQGVEIVVESTGFFTKRADAAKHLEAGAKKVIISAPANEEDITIVMGVNEDKYDAANHDVISNASCTTNCLAPFAKVLNDKFGIKRGMMTTVHSYTNDQQILDLPHKDYRRARAAAENIIPTSTGAAKAVSLVLPELKGKLNGGAMRVPTPNVSLVDLVAELNQEVTAEEVNAALKEAAEGDLKGILGYSEEPLVSGDYNGNKNSSTIDALSTMVMEGSMVKVISWYDNESGYSNRVVDLAAYIAKKGL
chain 2: MGTIVCQDCNEAIHYFEDEKVTTLYGTCCGQCQCPVDEE

Test [1] deals with T1, His-tagged RNase J1 (B. subtilis, UniProt Q45493 1-555). Nature of the test: far-Western, overlay or dot blot.
T1 sequence (Q45493 whole entry): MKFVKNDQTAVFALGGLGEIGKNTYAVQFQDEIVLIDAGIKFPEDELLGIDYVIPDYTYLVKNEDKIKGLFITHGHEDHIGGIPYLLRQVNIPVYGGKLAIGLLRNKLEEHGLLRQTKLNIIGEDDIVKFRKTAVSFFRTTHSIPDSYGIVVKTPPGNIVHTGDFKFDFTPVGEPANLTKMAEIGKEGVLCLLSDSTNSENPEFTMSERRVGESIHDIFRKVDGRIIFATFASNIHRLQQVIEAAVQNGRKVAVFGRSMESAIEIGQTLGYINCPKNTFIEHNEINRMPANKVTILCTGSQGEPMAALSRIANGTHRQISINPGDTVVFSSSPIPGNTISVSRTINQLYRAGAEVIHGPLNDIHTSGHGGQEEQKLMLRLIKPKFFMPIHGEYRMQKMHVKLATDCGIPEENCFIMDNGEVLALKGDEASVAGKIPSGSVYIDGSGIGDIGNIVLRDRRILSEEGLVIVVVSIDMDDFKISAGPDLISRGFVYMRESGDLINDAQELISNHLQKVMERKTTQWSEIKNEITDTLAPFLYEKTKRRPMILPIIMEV
The target of test [2] is T1, His-tagged RNase J1. Nature of the test: far-Western, overlay or dot blot. This is another data set of the same source.
Test [3] addresses B3. Nature of the test: pull-down.
Test [4] concerns the target B1. Put plainly: pull-down.

Where two headings read alike, the source gives them in different places.

Turning to B1, the binding result with His-tagged RNase J1 [1] was “binds”.

B2: untagged GapA (enzyme, UniProt P09124 1-335, looked up)
chain: MAVKVGINGFGRIGRNVFRAALNNPEVEVVAVNDLTDANMLAHLLQYDSVHGKLDAEVSVDGNNLVVNGKTIEVSAERDPAKLSWGKQGVEIVVESTGFFTKRADAAKHLEAGAKKVIISAPANEEDITIVMGVNEDKYDAANHDVISNASCTTNCLAPFAKVLNDKFGIKRGMMTTVHSYTNDQQILDLPHKDYRRARAAAENIIPTSTGAAKAVSLVLPELKGKLNGGAMRVPTPNVSLVDLVAELNQEVTAEEVNAALKEAAEGDLKGILGYSEEPLVSGDYNGNKNSSTIDALSTMVMEGSMVKVISWYDNESGYSNRVVDLAAYIAKKGL
For B2, in the test with His-tagged RNase J1 [1], the binding result is reported as “binds”. As to B3, the binding result in the test with His-tagged RNase J1 [2] is “binds”.

B4: RNase J1 (enzyme)
chain: not shown
In the case of B4, the “GapA/SR1P-RNase J1 ratio” value in test [3] was 80 GapA/SR1P per RNase J1. Besides, in test [4], the “GapA-RNase J1 ratio” value is around 200 GapA per RNase J1.

(Values after article PMC5013986 (RNA Biology, 2016).)
